Laboratory results as given in US11319530B2, “Host cells and systems for membrane protein expression” (President and Fellows of Harvard College, priority 2015, dated 2022).

B1: FLAG-tagged E. coli DsbAC33A (pFH442: pFH441 C33A-FLAG) (enzyme, UniProt P0AEG4 20-208, looked up)
chain: AQYEDGKQYTTLEKPVAGAPQVLEFFSFFCPHAYQFEEVLHISDNVKKKLPEGVKMTKYHVNFMGGDLGKDLTQAWAVAMALGVEDKVTVPLFEGVQKTQTIRSASDIRDVFINAGIKGEEYDAAWNSFVVKSLVAQQEKAAADVQLRGVPAMFVNGKYQLNPQGMDTSNMDVFVQQYADTVKYLSEKK
notes: by common usage C33 of DsbA is counted on the mature (periplasmic) protein, not on the precursor; Expressed from pBAD43 in E. coli; also called C33A mutant of DsbA; not shown: FLAG tag

What was measured:
[1] = biological target: T1, rat VKORc1ΔAAR expressed in FSH231 (Rattus norvegicus, UniProt Q6TEK4, DEL31-33); experiment: blue/white agar assay in 384 well plates using the β-Gal^dbs reporter (dose-dependent inhibition of VKORc1); format: cell-based; details: FIG. 4 Panel A; for dose-dependent inhibition of VKORc1: rat VKORc1ΔAAR expressed in E. coli FSH231 (ΔdsbB, yidCT362I, hsIVC160Y)
T1 construct: expressed in transfected cells; host or cells: E. coli FSH231 (ΔdsbB, yidCT362I, hslVC160Y, malF-lacZ102 reporter), pTrc99a plasmid
T1 sequence (Q6TEK4 with tags, fused parts or gaps DEL31-33): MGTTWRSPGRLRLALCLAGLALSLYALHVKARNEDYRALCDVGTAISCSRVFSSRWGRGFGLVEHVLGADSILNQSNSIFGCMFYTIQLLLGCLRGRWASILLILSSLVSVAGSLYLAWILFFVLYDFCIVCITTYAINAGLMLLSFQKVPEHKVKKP

[2] = biological target: the molecule itself; experiment: immunoblot, FIG. 4 Panel C
VKORc1ΔAAR, G60D = biological target: T2, VKORc1ΔAAR, G60D (Rattus norvegicus, UniProt Q6TEK4, C16A/C85A/C96A/DEL31-33/G60D); experiment: motility assay, low agar motility plates of FSH231; format: cell-based; details: FSH231 co-expressing VKORc1ΔAAR, G60D and DsbAC33A, in the presence of DsbAwt; FIG. 4 Panel B
T2 construct: expressed in transfected cells; host or cells: E. coli FSH231 (ΔdsbB, yidCT362I, hslVC160Y), pTrc99a plasmid, co-transformed with pBAD43 (empty, or carrying DsbA or DsbAC33A)
T2 sequence (Q6TEK4 with tags, fused parts or gaps C16A/DEL31-33/G60D/C85A/C96A): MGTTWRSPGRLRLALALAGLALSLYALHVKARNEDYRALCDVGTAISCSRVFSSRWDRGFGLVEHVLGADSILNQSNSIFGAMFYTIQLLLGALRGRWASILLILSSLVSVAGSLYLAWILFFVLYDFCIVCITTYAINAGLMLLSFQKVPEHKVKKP
Method: Bacterial motility was assayed by stabbing a colony into 0.3% minimal medium Agar plates containing M63 salts, 0.2% Glucose, IPTG, and carbenicillin. Motility was examined after two days of growth at 30 C. When using arabinose to induce expression from pBAD promoter, 0.5% glycerol was used instead of glucose in addition to 0.1% NZ to enhance motility.
As expected, the function of VKORc1ΔAAR in disulfide bond formation was dependent on E. coli DsbA, the presumed substrate of the now functional VKORc1ΔAAR. To determine whether VKORc1ΔAAR interacts directly with DsbA in vivo, we used a C33A mutant of DsbA which forms a detectable stable complex with DsbB and asked whether a similar scenario occurs with VKORc1ΔAAR (23). We used the highly expressed VKORc1ΔAAR, G60D lacking all nonessential cysteines expressed in a ΔdsbB, yidCT362I, hsIVC160Y strain (FSH231). […] When TCA-precipitated proteins of FSH231 strain expressing both T7-tagged VKORc1ΔAAR, G60D and FLAG-tagged DsbAC33A are run on a non-reducing SDS-PAGE and probed by either anti-T7 or FLAG tags antibodies, a VKORc1-DsbA complex band around 40 kDa can be seen (FIG. 4., Panel C) that is DTT-sensitive. The complex formation is also observed when using VKORc1 lacking C51, but disappears in the absence of C46 or C132, unless the removal of C132 is accompanied by the removal of C51 (FIG. 4., Panel C). […]

[3] = biological target: B1; experiment: non-reducing SDS-PAGE of TCA-precipitated proteins of FSH231, immunoblot with anti-T7 or anti-FLAG; mixed disulfide
[4] = biological target: B1; experiment: non-reducing SDS-PAGE of TCA-precipitated proteins of FSH231, immunoblot with anti-T7 or anti-FLAG
[5] = biological target: B1; experiment: non-reducing SDS-PAGE immunoblot; mixed disulfide

Molecule: O=C1c2ccccc2C(=O)C1c1ccc(Br)cc1 [bromindione]
- dose-dependent inhibition of VKORc1 [1]: inhibited
- inhibitory effect compared with warfarin ([1]; rat VKORc1ΔAAR expressed in E. coli FSH231): stronger inhibitory effects than warfarin

Molecule: CC(=O)CC(c1ccccc1)c1c(O)c2ccccc2oc1=O (stereo not drawn) [warfarin]
- dose-dependent inhibition of VKORc1 [1]: inhibited

Molecule: B1
- binding result [2]: binds

B2: DsbAC33A: C33A mutant of E. coli DsbA, expressed from pBAD43; forms mixed disulfide with VKORc1 (protein)
chain: AQYEDGKQYTTLEKPVAGAPQVLEFFSFFCPHAYQFEEVLHISDNVKKKLPEGVKMTKYHVNFMGGDLGKDLTQAWAVAMALGVEDKVTVPLFEGVQKTQTIRSASDIRDVFINAGIKGEEYDAAWNSFVVKSLVAQQEKAAADVQLRGVPAMFVNGKYQLNPQGMDTSNMDVFVQQYADTVKYLSEKK
modifications: left off: small tags and cut ends
- inhibition of VKORc1 function (motility) (VKORc1ΔAAR, G60D): inhibits the function of VKORc1

B3: T7-tagged rat VKORc1ΔAAR, G60D lacking all nonessential cysteines (pFH436: rat VKORc1 C16A ΔA31AR G60D C85A C96A-linker-T7 tag) (enzyme)
chain: MGTTWRSPGRLRLALALAGLALSLYALHVKARNEDYRALCDVGTAISCSRVFSSRWDRGFGLVEHVLGADSILNQSNSIFGAMFYTIQLLLGALRGRWASILLILSSLVSVAGSLYLAWILFFVLYDFCIVCITTYAINAGLMLLSFQKVPEHKVKKPGTGGGSGGGSGS
notes: Expressed in E. coli FSH231 (ΔdsbB, yidCT362I, hslVC160Y); not shown: C-terminal T7 tag
- binding result [3]: binds

B4: rat VKORc1 C16A ΔA31AR G60D C85A C96A C132A-linker-T7 tag (pFH439) (enzyme)
chain: MGTTWRSPGRLRLALALAGLALSLYALHVKARNEDYRALCDVGTAISCSRVFSSRWDRGFGLVEHVLGADSILNQSNSIFGAMFYTIQLLLGALRGRWASILLILSSLVSVAGSLYLAWILFFVLYDFAIVCITTYAINAGLMLLSFQKVPEHKVKKPGTGGGSGGGSGS
notes: also called VKORc1 in the absence of C132; not shown: C-terminal T7 tag
- binding result [4]: no binding

B5: rat VKORc1 C16A C51A ΔA31AR G60D C85A C96A-linker-T7 tag (pFH438) (enzyme)
chain: MGTTWRSPGRLRLALALAGLALSLYALHVKARNEDYRALCDVGTAISASRVFSSRWDRGFGLVEHVLGADSILNQSNSIFGAMFYTIQLLLGALRGRWASILLILSSLVSVAGSLYLAWILFFVLYDFCIVCITTYAINAGLMLLSFQKVPEHKVKKPGTGGGSGGGSGS
notes: also called VKORc1 lacking C51; not shown: C-terminal T7 tag
- binding result [5]: binds

B6: rat VKORc1 C16A C51A ΔA31AR G60D C85A C96A C132A-linker-T7 tag (pFH440) (enzyme)
chain: MGTTWRSPGRLRLALALAGLALSLYALHVKARNEDYRALCDVGTAISASRVFSSRWDRGFGLVEHVLGADSILNQSNSIFGAMFYTIQLLLGALRGRWASILLILSSLVSVAGSLYLAWILFFVLYDFAIVCITTYAINAGLMLLSFQKVPEHKVKKPGTGGGSGGGSGS
notes: also called VKORc1 with removal of C132 accompanied by the removal of C51; not shown: C-terminal T7 tag
- binding result [5]: binds
